Patent US20180057542A1 (University of Washington, published 2018)

T1: urea-expanded bacteriophage lambda capsid shell (bacteriophage lambda, UniProt P03713 1-341; P03710 23-533)
T1 construct: also called expanded capsid; expanded capsid lattice
T1 sequence 1: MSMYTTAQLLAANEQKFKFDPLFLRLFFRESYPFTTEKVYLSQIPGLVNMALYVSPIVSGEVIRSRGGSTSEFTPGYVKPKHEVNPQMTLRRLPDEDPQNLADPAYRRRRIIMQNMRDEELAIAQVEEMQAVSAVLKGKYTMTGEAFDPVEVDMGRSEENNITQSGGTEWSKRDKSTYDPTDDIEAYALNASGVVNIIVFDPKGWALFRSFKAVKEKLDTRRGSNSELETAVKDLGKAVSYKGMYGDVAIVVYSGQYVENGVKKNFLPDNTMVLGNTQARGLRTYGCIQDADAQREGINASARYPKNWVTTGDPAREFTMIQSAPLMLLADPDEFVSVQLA
T1 sequence 2: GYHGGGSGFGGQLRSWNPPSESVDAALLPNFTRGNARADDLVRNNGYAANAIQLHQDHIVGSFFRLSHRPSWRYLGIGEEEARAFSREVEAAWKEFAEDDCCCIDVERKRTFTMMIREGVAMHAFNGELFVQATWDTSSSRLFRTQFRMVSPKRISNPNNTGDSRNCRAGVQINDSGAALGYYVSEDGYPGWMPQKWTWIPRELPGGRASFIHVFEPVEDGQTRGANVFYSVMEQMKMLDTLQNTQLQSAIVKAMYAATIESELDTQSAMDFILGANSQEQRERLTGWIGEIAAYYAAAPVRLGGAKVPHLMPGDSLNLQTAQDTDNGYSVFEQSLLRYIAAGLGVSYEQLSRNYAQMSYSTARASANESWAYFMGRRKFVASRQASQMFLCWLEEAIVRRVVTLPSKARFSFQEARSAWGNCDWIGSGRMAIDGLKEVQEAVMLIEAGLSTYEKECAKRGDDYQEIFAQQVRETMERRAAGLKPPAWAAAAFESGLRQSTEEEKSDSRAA

B1: gpD(S42C::sMannose) (other)
chain: HHHHHHMTSKETFTHYQPQGNSDPAHTATAPGGLSAKAPAMTPLMLDTCSRKLVAWDGTTDGAAVGILAVAADQTSTTLTFYKSGTFRYEDVLWPEAASDETKKRTAFAGTAISIV
modifications: 6'-maleimidohexanamido-polyethyleneglycol mannoside (sMannose) on Cys42 (numbering without the N-terminal methionine)
notes: The presence of the H6 tag is therefore not certain; also called gpD-mannose; gpD glycoprotein
B2: H6-gpD-GFP (other)
chain: HHHHHHMTSKETFTHYQPQGNSDPAHTATAPGGLSAKAPAMTPLMLDTSSRKLVAWDGTTDGAAVGILAVAADQTSTTLTFYKSGTFRYEDVLWPEAASDETKKRTAFAGTAISIV
notes: HIS-tagged fusion of an N-terminal gpD domain and a C-terminal GFP domain; also called gpD-Green Fluorescent Protein; GFP-tagged gpD
B3: wild-type bacteriophage lambda gpD decoration protein (other)
chain: MTSKETFTHYQPQGNSDPAHTATAPGGLSAKAPAMTPLMLDTSSRKLVAWDGTTDGAAVGILAVAADQTSTTLTFYKSGTFRYEDVLWPEAASDETKKRTAFAGTAISIV
notes: Monomer in solution; adds to the expanded capsid as trimer spikes at the 140 three-fold axes (420 copies per shell); also called gpD-WT; gpD-wt
B4: gpD(S42C) (other)
chain: MTSKETFTHYQPQGNSDPAHTATAPGGLSAKAPAMTPLMLDTCSRKLVAWDGTTDGAAVGILAVAADQTSTTLTFYKSGTFRYEDVLWPEAASDETKKRTAFAGTAISIV

Tests used:
[1] = molecular target: T1, urea-expanded bacteriophage lambda …; test: in vitro capsid decoration, SDS-PAGE of isolated decorated capsids
Concanavalin A = molecular target: T2, Concanavalin A (UniProt P02866 30-281); test: agglutination assay (absorbance at 350 nm) of decorated capsids with Concanavalin A
T2 construct: Used at 1 uM in the agglutination assay; It recognises the mannose conjugated to gpD(S42C); also called Con A; ConA

[2] = molecular target: T1, urea-expanded bacteriophage lambda …; test: SDS-PAGE of capsids decorated with gpD-WT alone and separated from unreacted protein

| Binder | Surface Density (% relative to gpD) [1] | binding result (Concanavalin A) | ratio of major capsid protein (gpE) to gpD-WT in the decorated particles [2] |
| --- | --- | --- | --- |
| B1 | 82 % relative to gpD | – | – |
| B2 | 77 % relative to gpD | – | – |
| B3 | 100 % relative to gpD | no binding (tested: 1 µM ConA, 1 µM gpD equivalent) | ~1 ratio gpE:gpD-WT |
| B4 | 90 % relative to gpD | no binding (tested: 1 µM ConA, 1 µM gpD equivalent) | – |
